For twelve sequences, protein production results are on record in a protein production outcome set (Wang et al. 2014).

A short description of the data set: label from the status in PepcDB records.

Regarding “MSEQTSQYLSDSYVEETRFGFWFLRSHTWQHHVLRVAINDLRSLFDGELPRHPVLLDAGCGQGKSFQYLRQVFAPQRLIGLDADPHSLKLSAEEARRQQMQVELIGSDCATLELADASVDLLFCHQTFHHLVEQEKALAEFYRVLKPGGYLLFAESTEAYIDTWVIRWLFRHPMHVQKSAAQYLQMIRQQGFEFGPQNVSYPYLWWSRAKDFGLLERFGLRQPPPVGQREETLVNVVARKPLNPTVVEEGLPA”, the protein production result is reported as “failed”. Turning to “MSESKEMVRGTFLITISILITKVLGVLFIIPFTALIGGQANMAPFTYAYAPYNIAIAIATAGVPLAASKYVAKYNALGAYKVSQKFYKSSFVVMSITGIVGFLVLYLLAPYIAELTLSRNTHGNNGWTVADITWIIRIISMVVIFIPVLATWRGIFQGYKSMGPTAVSEVTEQIARIVFILVGSYLTLNVFGGTVLQANGIATFAAAIGAIAGILTLWYYWIKRRKNIKKMIDSDTANLNVSYGKMYKEIIAYSIPFVIVSLNFPLFNLVDQFTHNGALNLVGVKPGLQDIFFNMLNMSTNKIVMIPTSLSAGFAVSLIPFITKTYEEGRYAEMHRQIRTSIGVLMFITVPASIGIMALAQPLFTVFYGFDPVVHGHDPNFDGSRLLFYYAPVAILISLLSVTASMLQGIDKQKLTVFIILGSVLIKLILNYPLIMLLHTPGAVLSTAIALLFAICCNFYILKKYANFKFSYSWIHLAKIILISIIMMIGVEVIFFILRLFLEPTRFNYLIIVAIGVIVGAIIYGGITIKTKLADEFLGDIPAKIRRKVKMLR”, the protein production entry is “failed”. Turning to “MSEVEQFATIALISLTAFISPLIADKLRVPVVVLEIVLGMIFGVSFLNVIYASEWLSFLSLFGLIFLMFLAGLEIDADVVLKSGHLKRVVAFFALSLALSVALTALMGLNLFYAIILTNVAVGVVVSVLREIGLEKEDFGQLNIVTALVSDFSTMFLLSIYFITGYLQVAFAFLIILVFLAAYRFGKLVIWHFPDFISRWFSDEPSEIGVRGSLAIMILFVGLSSLLGVEAILGAFLAGVLLSITFRGGKKLYDKLYGMGFGFFIPIFFIKTGSELNITQAGEGIGFILLLLAVSVAVKGIPSLIFASNFGLRRAISMGMLQSTKLSLTIAGVAIGVSSGVITEFESTALVTFTIISCLLSPTLFRFLYPRYLPKTR”, the protein production entry was “failed”. Then “MSEVNKKVQDGVDDYLEEEDFGQLLEAFDKSREEATTEGVIVEIKNDEVYVDIGKKSEGILALSEIQGDNSKLLFNVGDSIKVAVMGSRGGRSLLSHKKALRKEKVIEFIKNYQENQDDIFTVKVVGKNKGGLIVVDENDVEFFLPKSQYGFKETNNIIGKTFKVKIIKIDKDEQSIIVSRKKTLDDERRKRKELINNVAQQEDLIEGIVKKITTYGMFVDVGGVDGLVHYSEISYKGPVNPGTLYKEGDKVPVKVIKYDKERKHLSLSIKAALPDPWSEIKDTLDIGDTIKVIVSNIEPYGAFVDLGNDIEGFLHISEISWDKNIKNPKDYINKGQEIDVEVIEINPNERRLRVSLRNLLSRPFDEFMKSYKIADVVEGEITSVTSFGAFVKLGGIEGLLHNEDASWDRNDKCKDKFSQGDKIKVKIIKIDEENQKISLSTKELSSSPVQEYAKIHKVGDIVKGAIRDIKDFGVFVELSKNVDALIHKEDISTSMLENLKIGDDIEAAIVFIDEKKNRIRLSVKNLVRIKEREVLNEINNDDKVTLGDIIKDQLALEHHHHHH”, with “not failed”. Then “MSEYEVLLATKRRTPPDSSAGRSSQIWRRAFGHWLQGRNGSSSLSNQNEPRPCRVRRNAGSHGPPVCIPFALALPPRMDVRLPSRLAPPLGAVLLCTLLMGGPPPTVASPAVLFPSADTTSPRARRLLIQGTTEAQLGDYEEAISHFEAALEQVPEAPVLLLALADAHEAQGALSTALFYARRAQTQGSPRPSPYRRLAEMQRAAGDPAAALRTYQQLLDHVPNANDAHRARAAIQADLGRTKGAIQSYEIYLQRADSPPIDVYRRLLSLYRKTGDKDGVETTLRTLVERRPTVRSYQRRLGEYYADEGRPRKALALLAPLGRQFPNDEALRRQVQRLARQTGQSIASPTQRAQSDSTRSQSASPDAPLRRARSMYDAATASSPPDTAQLRAAAGVLRDVLHQSPDTEAALSLQAELYQAWGRPEEAGRAMERLLDLTPRAPGRWVRTAQTYQRAHLYARAAGVAEEGFLLFPGHMPLARTAAFARLRTGDPAKARRHFQDALSLLGDSTGAAAEAVLHAGLGLAKSRLGRPREADDALKNARALAPQHPQVVRLYARSLARQDDRLDQALDLAEQAVENAPDSPSAHRALGQVQFRRDELEAARRHLRIALDAGGPSATLLERLGDVEAALGNDTAAQTYWQRALDRNPDRSSLREKLAVPANS”, with “failed”; and “MSFCKLVSFVLILHLLNSCLISCSSNDLSQIPKNFLSLAKREDFFDWMVGIRRRIHENPELGYEEVETSKLVKTELDKMGVSYKNPVAVTGVIGYVGTGHAPFVALRADMDALPIQEMVEWEHKSKIPGKMHACGHDAHTTMLLGAAKLLKEHQEELQEGGAGAKKIVEAGVLENVGAIFGLHVSNLLGLGQLSSREGLLMAGSGRFKATISGKGGHAALPQFAIDPVLAASNVILSLQHLVSREADPLDSQVVTVATFEGSDAFNVIPDSVTIGGTFRALLPKSFEQLKQRIVQVITTQASVNMCNATVDFLEDETPPFPPTVNNKTLHLFYKNVSVDMLGIENYVETLPVMVSEDFAFYQQAIPGHFSFVGMQNKSHSPMANPHSPFFEVNEELLPYGASLLASLATRYLLDSSSSPNKDEL”, with “failed”; and “MSFESNQLMPIAALRGGPGTPAADVLTAFALRRKAEGIDVVGVIVPPEDAGSGHQGHGHGEGHGGGHEGCECRSELIDIATGDRYAMHQDLGSGSQACNLNSSSLALAAGAVERAVARKPALVVLSRFGGQEAVRGGLMSAFQAAIAAGVPVACVVTPKAEDVWNDFAQGLSVSLPPEADALEAWWRDHARGRNAALEHHHHHH”, with “failed”. For the sequence “MSFIEKMIGSLNDKREWKAMEARAKALPKEYHHAYKAIQKYMWTSGGPTDWQDTKRIFGGILDLFEEGAAEGKKVTDLTGEDVAAFCDELMKDTKTWMDKYRTKLNDSIGRD”, the protein production result is “not failed”.

Turning to “MSFKEEQVIKHHQDLANKSVSTFLLLGLDNSGKRKLSTSRTDGMMVVIVNHKTKTITLCSLLRDTFTKIYSQQYHGYQRIETAYTYGGDAAAVATVEHFLKLPIDYYVTLNWDGFIQAINDIGPLSVRVDRAFVGQNYWGHAVHFKAGLQEMNGARALAYARERHVDNDQYRGFRQQAVLYALLKRLNQGALVAKGSQIMGDVKGQVRTNMSEGDMLSLIKYRTVLKHYRVKRVTFQWRTFDTAGRSMVEVYPDSRQHTIAELQAAAGRRAPLEHHHHHH”, the protein production result is reported as “failed”. Then “MSFKGEITHLVPNELYAFKVVEGPFHYTGTYRFKPHPEGTWIEWVFEAEPGSFFGVLPPALLKKMVLAQFKKDVDNLQALAQKGEAYESVGNENKPTLETNKPPHKTQQMMERYARWILSHRRIVLEHHHHHH”, with “failed”.

For “MSFKNFKCVPKMIFGRGSFVQLDTVLEQERTDANDFVVFLVDDVHQHKPLAARVPNKAHDLVIYVNVDDEPTTVQVDELTAQVKAFNTKLPVSVVGLGGGSTMDLAKAVSLMLTNPGSSSEYQGWDLIKNPAVHHIGIPTVSGTGAEASRTAVLCGPVRKLGLNSDYTVFDQIIMDSELIAGVPTDQWFYTGMDCFIHCVESLQGTYLNEFAKAFAEKSMDLCREVYLDDHPEKDDKLMMASYMGGMSIAYSQVGACHAVSYGLGYVLGYHHGIGNCLAFDVLEEFYPEGVAEFRKMMEIHNITLPKNICKDLPDETIAKMVAVTKSMGPLWDNVYGKGWEEKVTDEMLTKLFRRI”, the protein production result is on record as “not failed”. For “MSFNVFSGSFGQIFKRSRKNSHEYKNENATFELIKSSILVAFSGALRIHLAFLLMYIQSNILVCIAGGLIIYTVYTLDRALGSEEDSVNRKELNGSNKKVGLTVSLLAFMVGTYILAGEEMLPLAFIPFVTGYLYSKGIKIGKFALKLKGGLGVKNIVVGLTWGIFIAGLAGSGCRNLIPVVLIFIFFGVKLFINSTIYDFKDIAGDTLAGINTLPVSLGVRKTRNLLTGMHLFSHLVIGVALIHGALAFEPLIVLYSFVCGLICIQKFTHPEYEEFPSQKMERTLLVDGESTSITGLRIAGYLIA” the value was “failed”.
